Assay results published in patent US9833497B2, “Human originated EGF domain proteins and use of the same” (CHENGDU SOURCEBIO LIMITED-LIABILITY COMPANY, priority 2013, dated 2017).

B1: PRT845 (protein, listed as Homo sapiens)
chain: CQCNGHADTCNEQDGTGCPCQNNTETGTCQGSSPSDRRDCYKYQCAKCRESFHGSPLGGQQCYR
B2: PRT863 (protein, listed as Homo sapiens)
chain: CFCNGHADQCIPVHGFRPVKAPGTFHMVHGKCMCKHNTAGSHCQHCAPLYNDRPWEAADGKTGAPNECRT
B3: PRT598 (protein, listed as Homo sapiens)
chain: CSCNSHSSRCHFDMTTYLASGGLSGGVCEDCQHNTEGQHCDRCRPLFYRDPLKTISDPYACIP
B4: PRT864 (protein, listed as Homo sapiens)
chain: CKCNGHADTCHFDVNVWEASGNRSGGVCDDCQHNTEGQYCQRCKPGFYRDLRRPFSAPDACKP

Experiments:
Format in all cases: cell-based
Enterobacter cloacae = test: MIC against Gram-negative bacteria: Enterobacter cloacae; conditions: 5×10^5 CFU/mL; for MIC (μg/mL) E. cloacae: 10 h cultivation at 37° C.
Protocol: (§1) 1. Gram-negative bacteria, such as E. coli BL21, Pseudomonas aeruginosa, Klebsiella pneumonia, Enterobacter cloacae, Aeromonas hydrophila, Citrobacter diversus, Moraxella catarrhalis, Proteus mirabilis, Proteus vulgaris, Serratia marcescens, etc were streaked on solid LB medium and cultured respectively. Then, typical clones were picked, inoculated into common liquid LB medium respectively, and cultured at 37° C. with shaking at 185 rpm until the McFarland specific turbidity was 0.5. The bacterial culture of each of Gram-negative bacteria was centrifuged at 4000×g for 3 min, the supernatant was discarded, and the thalli were resuspended with fresh LB medium.
(§2) 2. The above-mentioned bacterial suspensions were diluted and inoculated into 96-well plates with the final concentration of the bacterial suspension being 5×10^5 CFU/mL per well.
(§3) 3. Each of the purified human-originated EGF domain proteins (PRT1 to PRT1498 in Table 1) was added to each of the above wells and subjected to two-fold serial dilution in concentration. Three parallel wells were set up for each concentration in the gradient.
(§4) 4. The above-mentioned 96-well plates were placed and cultured at 37° C. in shaking incubator shaking at 175 rpm. […] The minimal inhibitory concentration MIC is defined as the lowest concentration of the recombinant protein at which there is no growth of the bacteria.

E. coli DH5α = test: Antibacterial activity: MIC and growth curve against E. coli DH5α in 96-well plate; conditions: minimal inhibitory concentration against E. coli DH5α; 96-well plate, 5×10^5 CFU/mL, 37° C., judged after 8 h
Protocol: 1. E. coli DH5α was exemplified. E. coli DH5α was streaked and cultured on LB solid medium. Then, a typical clone was picked and inoculated into common LB liquid medium, cultured at 37° C. with shaking at 185 rpm until the logarithmic growth phase was reached (OD600 of about 0.5). The bacterial culture was centrifuged at 4000×g for 3 min, the supernatant was discarded, and the thalli were resuspended with fresh LB medium.
2. The above-mentioned bacterial suspension was diluted and inoculated into a 96-well plate with the total volume of 100 μL per well and a bacterial count of 5×10^5 CFU/mL.
3. The recombinant protein hF VII-EGF1 was added to the above-mentioned wells with the final protein concentration in the well of the highest protein concentration being 50 μg/mL. Basing on this final concentration, a two-fold serial dilution was performed till a protein concentration gradient consisting of 50, 25, and 12.5 μg/mL was set up. Three parallel wells were set up for each concentration in the gradient.
as §4, with “plate was” for “plates were”, “rpm. Samples were taken every 30 min, the absorbance values were determined at 600 nm wavelength under a ultra violet spectrophotometer, and an inhibition curve was plotted.” for “rpm.”
According to the experimental procedures in Example 14, the minimal inhibitory concentrations (MIC, μg/mL) of the other human-originated EGF domain proteins (PRT2 to PRT1498 in Table 1) for E. coli DH5α were determined.

Proteus vulgaris = test: MIC against Gram-negative bacteria: Proteus vulgaris; conditions: 5×10^5 CFU/mL; for MIC (μg/mL) P. vulgaris: 10 h cultivation at 37° C.
Protocol: as §1, §2, §3, §4

Serratia marcescens = test: MIC against Gram-negative bacteria: Serratia marcescens; conditions: 5×10^5 CFU/mL; for MIC (μg/mL) S. marcescens: 10 h cultivation at 37° C.
Protocol: as §1, §2, §3, §4

Citrobacter diversus = test: MIC against Gram-negative bacteria: Citrobacter diversus; conditions: 5×10^5 CFU/mL; for MIC (μg/mL) C. diversus: 10 h cultivation at 37° C.
Protocol: as §1, §2, §3, §4

Aeromonas hydrophila = test: MIC against Gram-negative bacteria: Aeromonas hydrophila; conditions: 5×10^5 CFU/mL; for MIC (μg/mL) A. hydrophila: 10 h cultivation at 37° C.
Protocol: as §1, §2, §3, §4

Proteus mirabilis = test: MIC against Gram-negative bacteria: Proteus mirabilis; conditions: 5×10^5 CFU/mL; for MIC (μg/mL) P. mirabilis: 10 h cultivation at 37° C.
Protocol: as §1, §2, §3, §4

Pseudomonas aeruginosa = test: MIC against Gram-negative bacteria: Pseudomonas aeruginosa; conditions: 5×10^5 CFU/mL; for MIC (μg/mL) P. aeruginosa: 10 h cultivation at 37° C.
Protocol: as §1, §2, §3, §4

Moraxella catarrhalis = test: MIC against Gram-negative bacteria: Moraxella catarrhalis; conditions: 5×10^5 CFU/mL; for MIC (μg/mL) M. catarrhalis: 10 h cultivation at 37° C.
Protocol: as §1, §2, §3, §4

E. coli BL21 = test: MIC against Gram-negative bacteria: E. coli BL21; conditions: 5×10^5 CFU/mL; for MIC (μg/mL) E. coli BL21: 10 h cultivation at 37° C.
Protocol: as §1, §2, §3, §4

Klebsiella pneumonia = test: MIC against Gram-negative bacteria: Klebsiella pneumonia; conditions: 5×10^5 CFU/mL; for MIC (μg/mL) K. pneumonia: 10 h cultivation at 37° C.
Protocol: as §1, §2, §3, §4

Molecule | MIC (μg/mL) E. cloacae (Enterobacter cloacae) [µg/mL] | MIC (E. coli DH5α) [µg/mL] | MIC (μg/mL) P. vulgaris (Proteus vulgaris) [µg/mL] | MIC (μg/mL) S. marcescens (Serratia marcescens) [µg/mL] | MIC (μg/mL) C. diversus (Citrobacter diversus) [µg/mL] | MIC (μg/mL) A. hydrophila (Aeromonas hydrophila) [µg/mL] | MIC (μg/mL) P. mirabilis (Proteus mirabilis) [µg/mL] | MIC (μg/mL) P. aeruginosa (Pseudomonas aeruginosa) [µg/mL] | MIC (μg/mL) M. catarrhalis (Moraxella catarrhalis) [µg/mL] | MIC (μg/mL) E. coli BL21 (E. coli BL21) [µg/mL] | MIC (μg/mL) K. pneumonia (Klebsiella pneumonia) [µg/mL] | also measured
B1 | 12.5 | 25 | 12.5 | 50 | 12.5 | 25 | 12.5 | 25 | 25 | 12.5 | 25 | –
B2 | 12.5 | 50 | 25 | 12.5 | 12.5 | 12.5 | 12.5 | 25 | 12.5 | 12.5 | 50 | –
B3 | – | 25 | – | – | – | – | – | – | – | – | – | MIC E. cloacae (Enterobacter cloacae; 96-well plate, 37° C., 10 h): 12.5 µg/mL; MIC P. vulgaris (Proteus vulgaris; 96-well plate, 37° C., 10 h): 50 µg/mL; MIC S. marcescens (Serratia marcescens; 96-well plate, 37° C., 10 h): 25 µg/mL; MIC C. diversus (Citrobacter diversus; 96-well plate, 37° C., 10 h): 50 µg/mL; MIC A. hydrophila (Aeromonas hydrophila; 96-well plate, 37° C., 10 h): 25 µg/mL; MIC P. mirabilis (Proteus mirabilis; 96-well plate, 37° C., 10 h): 12.5 µg/mL; MIC P. aeruginosa (Pseudomonas aeruginosa; 96-well plate, 37° C., 10 h): 12.5 µg/mL; MIC M. catarrhalis (Moraxella catarrhalis; 96-well plate, 37° C., 10 h): 25 µg/mL; MIC E. coli BL21 (E. coli BL21; 96-well plate, 37° C., 10 h): 50 µg/mL; MIC K. pneumonia (Klebsiella pneumonia; 96-well plate, 37° C., 10 h): 50 µg/mL
B4 | 50 | 12.5 | 12.5 | 50 | 12.5 | 25 | 50 | 12.5 | 25 | 12.5 | 25 | –
